This note sets out measurements from patent US20260274975A1.

Non-standard residues stand in square brackets, D forms with d. No end group written: not given here.

For this assay, the target named is Anti-Müllerian hormone Receptor 2 (AMH-R2), protein target applied to the peptide microarray (UniProt Q16671). Description: peptide microarray; protein target detected by anti-GST and Alexa Fluor 647 antibody, scanned signal.
Sequence of UniProt Q16671 (Q16671 18-149 limits assumed): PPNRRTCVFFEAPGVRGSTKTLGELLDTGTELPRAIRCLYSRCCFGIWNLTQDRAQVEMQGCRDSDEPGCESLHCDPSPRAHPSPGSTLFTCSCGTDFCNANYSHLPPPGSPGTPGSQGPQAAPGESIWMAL

B1: NegAMHR2BP (SEQ ID NO: 4) (peptide)
peptide: [dR][dW]G[dA]SN[dK]HFAN[dA]NQ[dR][dA][dL]
In the case of B1, the Average was 65500, the Rep 1 was 65500 and the Rep 2 is 65400.

B2: AMH receptor binding peptide SEQ ID NO: 20 (peptide)
peptide: [dK]GSNA[dR][dK]N[dR][dR]D[dA]SGV[dA][dL]
B2 had an Average of 47900, a Rep 1 of 52300 and a Rep 2 of 43500.

B3: AMH receptor binding peptide SEQ ID NO: 12 (peptide)
peptide: G[dL]Q[dW]SFANGQ[dW][dR]G[dA][dL]SG
In turn, B3 had an Average of 63800, a Rep 1 of 64600 and a Rep 2 of 62900.

B4: AMH receptor binding peptide SEQ ID NO: 19 (peptide)
peptide: GG[dR]SVSAN[dL]Q[dR]E[dR][dK]V[dA]G
Turning to B4, the Average came to 56900, the Rep 1 is 55700 and the Rep 2 turned out to be 58100.

B5: AMH receptor binding peptide SEQ ID NO: 18 (peptide)
peptide: G[dL]Y[dW]SAYNP[dW][dR]HV[dA][dL][dA]S
For B5, the Average is 59200, the Rep 1 worked out at 60800 and the Rep 2 stood at 57500.

B6: AMH receptor binding peptide SEQ ID NO: 17 (peptide)
peptide: EG[dL]QSSAYNNY[dW][dR][dK][dL]V[dA]
For the molecule B6, the Average was determined as 61200, the Rep 1 turned out to be 60200 and the Rep 2 was found to be 62200.

B7: AMH receptor binding peptide SEQ ID NO: 15 (peptide)
peptide: NG[dR]SQAHN[dL][dR][dK][dA]GV[dA][dL]S
The molecule B7 yielded an Average of 61500, a Rep 1 of 62900 and a Rep 2 of 60000.

B8: AMH receptor binding peptide SEQ ID NO: 5 (peptide)
peptide: DG[dL]GSV[dL]A[dR][dK]N[dR][dR]D[dA]V[dL]
As for B8, the Average came to 65500, the Rep 1 is 65400 and the Rep 2 is 65500.

B9: AMH receptor binding peptide SEQ ID NO: 3 (peptide)
peptide: Y[dW]G[dW]SHA[dK][dA]NQFPN[dR][dL][dA]
As to B9, the Average worked out at 65500, the Rep 1 was determined as 65500 and the Rep 2 was 65500.
